The test has as its target FcRn. Description: SPR pH 6.0, Ab captured by goat anti-human IgG, FcRn injected.
Sequence of FcRn (P55899 24-297, chain 1 of 2): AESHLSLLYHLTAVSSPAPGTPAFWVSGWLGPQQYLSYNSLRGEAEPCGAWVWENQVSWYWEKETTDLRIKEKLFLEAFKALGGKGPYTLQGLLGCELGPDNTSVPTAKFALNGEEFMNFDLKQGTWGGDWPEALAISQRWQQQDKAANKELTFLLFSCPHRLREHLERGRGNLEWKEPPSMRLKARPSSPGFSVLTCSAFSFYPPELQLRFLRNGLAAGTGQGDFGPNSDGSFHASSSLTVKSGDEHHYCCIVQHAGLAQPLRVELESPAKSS
Sequence of FcRn (P61769 21-119, chain 2 of 2, further chain): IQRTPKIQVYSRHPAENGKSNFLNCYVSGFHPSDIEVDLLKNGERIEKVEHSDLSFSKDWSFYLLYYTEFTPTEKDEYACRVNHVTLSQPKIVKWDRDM
The term Kd denotes the free concentration of one partner at which half of the binding sites on the other are occupied at equilibrium, for simple one-to-one binding. A low value points to higher affinity. Substance “L351Y_F405A_Y407V / T366L_K392M_T394W (antibody)” registered a Kd of 5 µM.

As for “T350V_L351Y_F405A_Y407V / T350V_T366L_K392L_T394W (antibody)”, the Kd came to 3.9 µM.

“T350V_L351Y_F405A_Y407V / T350V_T366L_K392M_T394W (antibody)” displayed a Kd of 4.3 µM. The Kd values of the last two substances are within 1.5-fold of each other.

In the case of “T350V_L351Y_S400E_F405A_Y407V / T350V_T366L_N390R_K392M_T394W (antibody)”, the Kd came to 5 µM.

Regarding “Y349C_T350V_F405A_Y407V / T350V_S354C_T366L_K392M_T394W (antibody)”, the dissociation constant Kd is 4.1 µM.

Values taken from patent publication US20160257763A1.
